± gives the standard deviation of the averaged measurements.
What follows are sequences tested on Saccharomyces cerevisiae (assay: protein stability index of tFT-peptide fusion (C-terminal peptide) (PSI (0-1 scale)); higher = more stable (slower turnover)). Settings: genetic background: das1 deletion; temperature: 30 C.
Protocol: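 MPS profiling in S. cerevisiae of the yeast C-terminome library: the last 12 aa of each annotated ORF are fused to the C-terminus of a sfGFP-mCherry timer, after a GGGS linker. Cells are FACS-sorted into 8 mCherry/sfGFP bins and deep-sequenced. PSI runs from 0 (unstable) to 1 (stable); wild type and das1Δ backgrounds, two technical replicates each.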

Q: With LSKDGIYTAIPK [PAU15 C-terminal 12 aa] as the sequence, how does the protein stability index read?
A: The protein stability index was 0.685 ± 0.025.

Q: With LSRVGELYLSTD [SEC7 C-terminal 12 aa] as the sequence, how does the protein stability index read?
A: Its protein stability index is 0.683 ± 0.02.

Q: How did the protein stability index turn out when LSVEEDRDVQMT [APC5 C-terminal 12 aa] was run?
A: Its protein stability index is 0.684 ± 0.013.

Q: For LVDIITGASSLG [ATP3 C-terminal 12 aa], which protein stability index is on record?
A: Its protein stability index is 0.6894 ± 0.004.

Q: With LVVARDMLLASL [SPC25 C-terminal 12 aa] as the sequence, how does the protein stability index read?
A: The protein stability index was 0.6474 ± 0.0048.

Q: With LVYENVRVPRYL [IFM1 C-terminal 12 aa] as the sequence, how does the protein stability index read?
A: The protein stability index was 0.697 ± 0.015.

Q: How did the protein stability index turn out when LWNLSDNCKNTV [MMS1 C-terminal 12 aa] was run?
A: Its protein stability index is 0.707 ± 0.02.

Q: Which protein stability index does the source give for LYAQLRENGLVP [SNU114 C-terminal 12 aa] here?
A: Its protein stability index is 0.695 ± 0.035.

Q: For MAEKQIASEFNY [DBP7 C-terminal 12 aa], which protein stability index is on record?
A: The protein stability index was 0.721 ± 0.012.

Q: With MAQNYVIDRMGL [MTC1 C-terminal 12 aa] as the sequence, how does the protein stability index read?
A: The protein stability index was 0.707 ± 0.027.

Q: With MEKSDRYIQETW [TAH18 C-terminal 12 aa] as the sequence, how does the protein stability index read?
A: Its protein stability index is 0.7032 ± 0.0048.

Q: How did the protein stability index turn out when MERELIKEEYDN [PAA1 C-terminal 12 aa] was run?
A: The protein stability index was 0.702 ± 0.025.

Q: MERLQKGWSLAK [MDY2 C-terminal 12 aa] was tested. Which protein stability index did it give?
A: The protein stability index was 0.71 ± 0.043.

Q: MFGKLGRYLYSH [NSG2 C-terminal 12 aa] was tested. Which protein stability index did it give?
A: The protein stability index was 0.75552 ± 0.00052.

Q: How did the protein stability index turn out when MFNQGKVEEMDF [SML1 C-terminal 12 aa] was run?
A: Its protein stability index is 0.7189 ± 0.0047.

Q: For MGIRLRYNVEPK [RPA135 C-terminal 12 aa], which protein stability index is on record?
A: Its protein stability index is 0.735 ± 0.041.

Q: With MKFNVISFLFHK [NAM2 C-terminal 12 aa] as the sequence, how does the protein stability index read?
A: Its protein stability index is 0.688 ± 0.011.

Q: For MKQLEKAGVRFE [FMP33 C-terminal 12 aa], which protein stability index is on record?
A: The protein stability index was 0.6871 ± 0.0014.

Q: With MLGVGSLLFLAF [ROT1 C-terminal 12 aa] as the sequence, how does the protein stability index read?
A: The protein stability index was 0.698 ± 0.03.

Q: Which protein stability index does the source give for MLYTSYQSIFGV [AVT4 C-terminal 12 aa] here?
A: Its protein stability index is 0.707 ± 0.015.

Q: MNSAMNVQPTGF [CHC1 C-terminal 12 aa] was tested. Which protein stability index did it give?
A: The protein stability index was 0.6951 ± 0.0016.

Q: With “MTQWLEISILMN [YCL001W-A C-terminal 12 aa]” as the sequence, how does the protein stability index read?
A: The protein stability index was 0.544 ± 0.05.

Q: How did the protein stability index turn out when MVGVLFFWVWIT [BET1 C-terminal 12 aa] was run?
A: The protein stability index was 0.201 ± 0.0064.

Q: How did the protein stability index turn out when NAPRFGVEYQMT [PHO89 C-terminal 12 aa] was run?
A: Its protein stability index is 0.72259 ± 0.00055.

Q: How did the protein stability index turn out when NCANCVYFSSRG [YDL221W C-terminal 12 aa] was run?
A: Its protein stability index is 0.7169 ± 0.0029.

Q: Which protein stability index does the source give for NDAQKRAIDENF [SIS1 C-terminal 12 aa] here?
A: The protein stability index was 0.687 ± 0.016.

Q: With “NDQNKNKQNAKR [YIL156W-A C-terminal 12 aa]” as the sequence, how does the protein stability index read?
A: The protein stability index was 0.7078 ± 0.0055.

Q: How did the protein stability index turn out when NDTIFKLKVFKL [ILS1 C-terminal 12 aa] was run?
A: Its protein stability index is 0.7346 ± 0.001.

Q: For NEDDYLAVKYVL [FES1 C-terminal 12 aa], which protein stability index is on record?
A: Its protein stability index is 0.687 ± 0.018.

Q: How did the protein stability index turn out when NEGSEEEPEIDQ [BDP1 C-terminal 12 aa] was run?
A: Its protein stability index is 0.6878 ± 0.0019.

Q: For NEKGNDDSDAKK [ILM1 C-terminal 12 aa], which protein stability index is on record?
A: Its protein stability index is 0.695 ± 0.041.

Q: How did the protein stability index turn out when NEKRNEPKPSTN [YTA12 C-terminal 12 aa] was run?
A: Its protein stability index is 0.6938 ± 0.0025.

Q: Which protein stability index does the source give for NEMRERLRALQN [VPS24 C-terminal 12 aa] here?
A: Its protein stability index is 0.668 ± 0.011.

Q: How did the protein stability index turn out when NENKKANGNNCC [YPT31 C-terminal 12 aa] was run?
A: The protein stability index was 0.705 ± 0.017.

Q: How did the protein stability index turn out when NHFHYDCVYRYC [YOR333C C-terminal 12 aa] was run?
A: Its protein stability index is 0.6939 ± 0.0038.

Q: NIKSSTLPGLSI [PFS2 C-terminal 12 aa] was tested. Which protein stability index did it give?
A: Its protein stability index is 0.694 ± 0.02.

Q: How did the protein stability index turn out when NKYMNEMLEYMQ [NUF2 C-terminal 12 aa] was run?
A: Its protein stability index is 0.715 ± 0.0072.

Q: NLAGRKNSRDNE [LOT5 C-terminal 12 aa] was tested. Which protein stability index did it give?
A: Its protein stability index is 0.681 ± 0.017.

Q: Which protein stability index does the source give for NLDNLFMASSLI [AIM6 C-terminal 12 aa] here?
A: The protein stability index was 0.7128 ± 0.0018.

Q: For NMGGWVLGGNAR [SND1 C-terminal 12 aa], which protein stability index is on record?
A: The protein stability index was 0.721 ± 0.023.

Q: Which protein stability index does the source give for NNGSSNNNTQNT [SNF5 C-terminal 12 aa] here?
A: Its protein stability index is 0.67 ± 0.014.

Q: NNLHSYEKRLHN [YAR075W C-terminal 12 aa] was tested. Which protein stability index did it give?
A: The protein stability index was 0.69 ± 0.019.

Q: With NNQPHYRDQLLQ [REI1 C-terminal 12 aa] as the sequence, how does the protein stability index read?
A: The protein stability index was 0.6976 ± 0.0028.

Q: With NNVDVSWVDKLV [STB5 C-terminal 12 aa] as the sequence, how does the protein stability index read?
A: Its protein stability index is 0.712 ± 0.013.

Q: For NPAARLDEDLYE [FRS2 C-terminal 12 aa], which protein stability index is on record?
A: The protein stability index was 0.662 ± 0.053.

Q: For NQKNEDLSDIKL [UTP30 C-terminal 12 aa], which protein stability index is on record?
A: Its protein stability index is 0.658 ± 0.019.

Q: NQTSFSRDRLRR [RRD1 C-terminal 12 aa] was tested. Which protein stability index did it give?
A: The protein stability index was 0.702 ± 0.013.

Q: NRAKGKVVVKMK [YIM1 C-terminal 12 aa] was tested. Which protein stability index did it give?
A: The protein stability index was 0.69 ± 0.022.

Q: How did the protein stability index turn out when NRRNNGYHPYNR [HRP1 C-terminal 12 aa] was run?
A: The protein stability index was 0.688 ± 0.019.

Q: For NSARKRVFGTVI [DIP2 C-terminal 12 aa], which protein stability index is on record?
A: The protein stability index was 0.6997 ± 0.0036.

Q: “NSISPPPRKGFI [YGL006W-A C-terminal 12 aa]” was tested. Which protein stability index did it give?
A: The protein stability index was 0.7177 ± 0.005.

Q: For NTFTEHNSNIYY [SPT10 C-terminal 12 aa], which protein stability index is on record?
A: Its protein stability index is 0.704 ± 0.021.

Q: With NTNELTDEHRWI [PHO2 C-terminal 12 aa] as the sequence, how does the protein stability index read?
A: Its protein stability index is 0.6977 ± 0.0017.

Q: “NVFNPDQPRMGP [YLR154W-A C-terminal 12 aa]” was tested. Which protein stability index did it give?
A: The protein stability index was 0.711 ± 0.017.

Q: For NVGYMHTQPQQR [TCO89 C-terminal 12 aa], which protein stability index is on record?
A: The protein stability index was 0.71 ± 0.0077.

Q: NVIRVWQVMTAN [ASC1 C-terminal 12 aa] was tested. Which protein stability index did it give?
A: Its protein stability index is 0.576 ± 0.0091.

Q: NVLTVVNPDEAD [SLG1 C-terminal 12 aa] was tested. Which protein stability index did it give?
A: Its protein stability index is 0.692 ± 0.027.

Q: Which protein stability index does the source give for NWSNQQINVQSS [PHM8 C-terminal 12 aa] here?
A: The protein stability index was 0.7172 ± 0.0032.

Q: How did the protein stability index turn out when NYEITPYENVHV [TOS2 C-terminal 12 aa] was run?
A: Its protein stability index is 0.682 ± 0.026.

Q: For NYLFKLMGPSSD [VTC2 C-terminal 12 aa], which protein stability index is on record?
A: The protein stability index was 0.687 ± 0.032.

Q: Which protein stability index does the source give for PAAVFAETLKHD [RPL4B C-terminal 12 aa] here?
A: Its protein stability index is 0.686 ± 0.016.

Q: For PDDQIHSILLSL [MET13 C-terminal 12 aa], which protein stability index is on record?
A: Its protein stability index is 0.708 ± 0.019.

Q: With “PGGGGGSPLIFL [YHR165W-A C-terminal 12 aa]” as the sequence, how does the protein stability index read?
A: Its protein stability index is 0.7299 ± 0.0012.

Q: PGTRGRVASKFL [MIM1 C-terminal 12 aa] was tested. Which protein stability index did it give?
A: The protein stability index was 0.7098 ± 0.0037.

Q: Which protein stability index does the source give for PISHVNNNDTHA [SLM3 C-terminal 12 aa] here?
A: Its protein stability index is 0.727 ± 0.014.

Q: PKYKEEESRSAV [RSN1 C-terminal 12 aa] was tested. Which protein stability index did it give?
A: The protein stability index was 0.678 ± 0.035.

Q: How did the protein stability index turn out when PLTNNIRPISIM [YJR115W C-terminal 12 aa] was run?
A: Its protein stability index is 0.6893 ± 0.0007.

Q: For PMIWHLVKKQWK [TOM5 C-terminal 12 aa], which protein stability index is on record?
A: Its protein stability index is 0.686 ± 0.011.

Q: With PPNSTSTNPYSS [SKG3 C-terminal 12 aa] as the sequence, how does the protein stability index read?
A: The protein stability index was 0.729 ± 0.015.

Q: Which protein stability index does the source give for PPPQESTEKEEK [MRP13 C-terminal 12 aa] here?
A: Its protein stability index is 0.709 ± 0.031.

Q: How did the protein stability index turn out when PPSPQEELLIEL [VPS27 C-terminal 12 aa] was run?
A: The protein stability index was 0.721 ± 0.017.

Q: With PRERLLSEYCSS [MET8 C-terminal 12 aa] as the sequence, how does the protein stability index read?
A: The protein stability index was 0.71885 ± 0.00032.

Q: For PSNASNTTTRRP [YKR045C C-terminal 12 aa], which protein stability index is on record?
A: The protein stability index was 0.703 ± 0.032.

Q: Which protein stability index does the source give for PSYPSEKISYSK [ADO1 C-terminal 12 aa] here?
A: The protein stability index was 0.7017 ± 0.0027.

Q: For PTIVGGLYYQRP [AAR2 C-terminal 12 aa], which protein stability index is on record?
A: The protein stability index was 0.7 ± 0.0021.

Q: How did the protein stability index turn out when QAKKSNSCCIIM [YKT6 C-terminal 12 aa] was run?
A: The protein stability index was 0.732 ± 0.034.

Q: For QAKLTAATNAKQ [PDC1 C-terminal 12 aa], which protein stability index is on record?
A: The protein stability index was 0.698 ± 0.018.

Q: Which protein stability index does the source give for QEGGDNTKIKQN [RNP1 C-terminal 12 aa] here?
A: Its protein stability index is 0.731 ± 0.023.

Q: Which protein stability index does the source give for QFFFTSRQKNYV [ERP4 C-terminal 12 aa] here?
A: Its protein stability index is 0.707 ± 0.014.

Q: QIADDRPWCRME [YHC3 C-terminal 12 aa] was tested. Which protein stability index did it give?
A: Its protein stability index is 0.705 ± 0.01.

Q: With QIAFAWQNKPRL [PXP1 C-terminal 12 aa] as the sequence, how does the protein stability index read?
A: Its protein stability index is 0.815 ± 0.029.

Q: For QKAQDVDVSMQD [RPN13 C-terminal 12 aa], which protein stability index is on record?
A: Its protein stability index is 0.68 ± 0.022.

Source: the supplement of paper PMC10724198
